B1: ULK3: human serine/threonine kinase, 472 amino acids (SEQ ID NO: 1), overexpressed from cloned cDNA or immunopurified FLAG-tagged (protein, listed as Homo sapiens)
chain: MAGPGWGPPRLDGFILTERLGSGTYATVYKAYAKKDTREVVAIKCVAKKSLNKASVENLLTEIEILKGIRHPHIVQLKDFQWDSDNIYLIMEFCAGGDLSRFIHTRRILPEKVARVFMQQLASALQFLHERNISHLDLKPQNILLSSLEKPHLKLADFGFAQHMSPWDEKHVLRGSPLYMAPEMVCQRQYDARVDLWSMGVILYEALFGQPPFASRSFSELEEKIRSNRVIELPLRPLLSRDCRDLLQRLLERDPSRRISFQDFFAHPWVDLEHMPSGESLGRATALVVQAVKKDQEGDSAAALSLYCKALDFFVPALHYEVDAQRKEAIKAKVGQYVSRAEELKAIVSSSNQALLRQGTSARDLLREMARDKPRLLAALEVASAAMAKEEAAGGEQDALDLYQHSLGELLLLLAAEPPGRRRELLHTEVQNLMARAEYLKEQVKMRESRWEADTLDKEGLSESVRSSCTLQ
modifications: PEPTIDE (1)..(472) ULK3
B2: ULK3(K139R): kinase-deficient ULK3 mutant with Lysine at position 139 mutated to Arginine (SEQ ID NO:7) (protein)
chain: MAGPGWGPPRLDGFILTERLGSGTYATVYKAYAKKDTREVVAIKCVAKKSLNKASVENLLTEIEILKGIRHPHIVQLKDFQWDSDNIYLIMEFCAGGDLSRFIHTRRILPEKVARVFMQQLASALQFLHERNISHLDLRPQNILLSSLEKPHLKLADFGFAQHMSPWDEKHVLRGSPLYMAPEMVCQRQYDARVDLWSMGVILYEALFGQPPFASRSFSELEEKIRSNRVIELPLRPLLSRDCRDLLQRLLERDPSRRISFQDFFAHPWVDLEHMPSGESLGRATALVVQAVKKDQEGDSAAALSLYCKALDFFVPALHYEVDAQRKEAIKAKVGQYVSRAEELKAIVSSSNQALLRQGTSARDLLREMARDKPRLLAALEVASAAMAKEEAAGGEQDALDLYQHSLGELLLLLAAEPPGRRRELLHTEVQNLMARAEYLKEQVKMRESRWEADTLDKEGLSESVRSSCTLQ
modifications: MUTAGEN (1)..(472) mutated ULK3 protein ULK3 (K139R)

Legend:
ULK3 = experiment: In vitro kinase assay, autophosphorylation; format: biochemical, human; conditions: FLAG-tagged protein immunopurified from HEK293 cells, γ-P32-ATP
Protocol: HEK293 cells were transfected with 13.5 μg of FLAG-tagged constructs expressed GLI1, GLI2, GLI3, ULK3, ULK3(K44R), ULK3(K139R) or FLAG-CMV-4 empty vector on 10 cm plates. The cells were lysed with 0.5 ml of Lysis Buffer (50 mM Tris HCl, pH 7.4, 150 mM NaCl, 1 mM EDTA, 1% Triton X-100) containing protease inhibitor cocktail (PIC) (Roche Applied Science). The lysates were centrifuged for 15 min at 4° C. and 15000 g, and the supernatants were used for immunoprecipitation (IP). IP was performed using anti-FLAG-M2 affinity gel (Sigma-Aldrich) in batch format according to the manufacture's instructions. Immune complexes were washed three times with 500 μl of Kinase Buffer (KB) (50 mM HEPES, pH 7.4, 20 mM MgCl2, 25 μM ATP) and resuspended in 12.5 μl of KB. One fifth of the immuno-complexes was subjected to WB and the rest was used for the kinase assay.
Kinase reactions were carried out in KB in a total volume of 20 μl of in the presence of 1 μCi of [γ-^32P]ATP per reaction. We used 1 μl of the immunoprecipitated ULK3, ULK3(K44R) or ULK3(K139R) mixed with 5 μl of the GLI-M2 immunocomplexes or 5 μl of bacterially expressed and purified His-GLI1 fragments. Kinase reactions were held at 30° C. for 30 min and terminated by adding of 5 μl of 4× Laemmli Sample Buffer. Proteins were resolved by SDS-PAGE. The gel was dried at 80° C. for 2 h, and autoradiography was performed using Bio-Rad Personal Molecular Imager FX.
To test if ULK3 has an autophosphorylation activity, we expressed FLAG-tagged wild-type ULK3 and mutants ULK3(K44R) and ULK3(K139R) in HEK293 cells, immunopurified and subjected to in vitro kinase assay in the presence of γ-P^32-ATP.

[1] = system: GLI1 in nuclear extracts of Cos1 cells; experiment: Cell fractionation analysis with WB; format: cell-based, primate; conditions: cotransfected with FLAG-tagged GLI1 in Cos1 cells, lamin A/C loading control
Protocol: Cos1 cells were transfected with FLAG-tagged expression constructs for GLI1 combined with ULK3, ULK3(K139R) or empty vector in ratio 1:1 on 10 cm plates. Nuclear and whole cell extracts (NE and WCE, respectively) were prepared as described in [36]. All extracts were normalized for protein amounts measured using […] kit (Thermo Scientific). A total 10 μg of protein were separated by SDS-PAGE and transferred to the PVDF membrane (Millipore, Billerica Mass., USA). The membrane was segmented according to the expected size of the detected proteins. Obtained strips were probed with the appropriate antibodies.
WB was performed using a non-blocking technique as described in [37]. Mouse monoclonal M2-anti-FLAG antibody (Sigma-Aldrich) was used for detection of FLAG-tagged GLI1, GLI2, GLI3, ULK3, ULK3(K44R) and ULK3(K139R) by WB in dilution 1:2000. Lamin A/C was detected with mouse monoclonal anti-Lamin A/C antibody (Upstate, Billerica Mass., USA) diluted 1:1000. Mouse monoclonal anti-His antibody (Novagen, Darmstadt, Germany) diluted 1:1500 was used for detection of bacterially expressed and purified GLI1 fragements. […]
To confirm the data from the immunofluorescent staining, we performed cell fractionation analysis. […] Expression of lamin A/C was analyzed as a loading control. ULK3 and ULK3(K139R) were detected mostly in WCEs.

[2] = system: GLI1 mRNA expression in HEK293 cells; experiment: Quantitative RT-PCR of endogenous GLI1 mRNA expression; format: cell-based, human; conditions: normalized by HPRT; for induction of endogenous GLI1 expression: 72 h; for endogenous GLI1 expression level relative to empty vector: FIG. 5B
Protocol: HEK293 cells were transfected with FLAG-tagged wt ULK3, ULK3(K139R) or respective empty vector in two replicates. After 5 h of incubation one replicate of cells transfected with the vector was induced by SHHC24II. The cells were incubated 24 h and 72 h, washed with PBS. Total RNA was isolated and treated with DNaseI using RNAqueous kit (Ambion) according to manufacture's instructions. cDNA of 2 μg total RNA was synthesised using SuperScript III kit (Ambion). Levels of GLI1 mRNA and mRNA of housekeeping gene HPRT used for normalization were detected in triplicates by quantitative Real-Time PCR. The following GLI1 primers were used for the assay: […]
HEK293 cells were transfected by ULK3 or respective empty vector. Cells transfected with empty vector were induced by 12 nM of SHHC24II and were used as a posititve control. Cells were incubated 24 h and 72 h, and total RNA was isolated. Level of GLI1 expression was measured using QRT-PCR procedure and the obtained data was normalized by expression of housekeeping gene HPRT. Level of GLI1 expression in cells transfected with empty vector was taken as 1.

Molecule	autophosphorylation activity (ULK3)	amount of GLI1 in nuclear extracts [1]	induction of endogenous GLI1 expression [2]	endogenous GLI1 expression level relative to empty vector [2]
B1	strong autophosphorylation activity	retained most of the GLI1 in the nuclei	able to induce	approximately 6 times
B2	almost completely absent	significantly lower amounts of GLI1	failed to activate	failed to activate

— patent US20130040894A1, “INHIBITION OR ACTIVATION OF SERINE/THREONINE ULK3 KINASE ACTIVITY” (TALLINN UNIVERSITY OF TECHNOLOGY, priority 2009, published 2013)
